Results published in publication doi:10.1101/388868, “Heterodimerization of UNC-13/RIM regulates synaptic vesicle release probability but not priming” (bioRxiv, 2018).
Numbering of substitutions follows the chain as printed. Names and notes keep the numbering of the source.

B1: C. elegans UNC-10 residues 62-121 WT (domain or fragment)
chain: KLVGTQDDAICQICQKTKFADGIGHKCFYCQLRSCARCGGRAQSKNKAIWACSLCQKRQQ
B2: UNC-13L C2A domain, wild type (recombinant, gel filtration) (domain or fragment)
chain: MDDVGDYNDDQLSDGMSMRLLCITIKKARLQGAVDEFNSYVTVKLQTVKSTTVAVRGNLPCWEQEFIFETNRPDDGMVLELWAKGVLWDKLIGVHYMPLSEIRYSNAAGSGQWLQMDHELETRNGQTVGTRGPTGHNLLTDVRFELPFDVQGHDEDIQSRLLALNGLIEHDQLGPNNHHRAPFNHSGLSEDSDYTSDVSVPVNHHQLHPNSSAHQYESHLHPHRTRQLLHTREGAASYEDEEDAYHARHQPESDDYNH

Assays:
[1] = biological target: T1, C. elegans UNC-13 long isoform residues 1-258 bearing the K49E mutation (C. elegans); experiment: ITC
T1 chain: B2 chain with K49E

[2] = biological target: the molecule itself; experiment: SEC; gel filtration of purified UNC-13L C2A, wild type or K49E; calibrated with alcohol dehydrogenase (150 kDa), bovine serum albumin (66 kDa) and carbonic anhydrase (29 kDa); void volume 10.78mL

| Binder | Ka [1] | stoichiometry N [2] |
| --- | --- | --- |
| B1 | 789000 M⁻¹ | – |
| B2 | – | 2 |
